Legend:
[1] = system: ABF1 (Arabidopsis thaliana); assay: cell_activity; details: yeast lacZ; no activity without ABRE
[2] = system: ABF2 (Arabidopsis thaliana); assay: cell_activity; details: yeast lacZ

**Q.** What does the source list for Em1a trimer reporter?
**A.** activity (fold over control) [1]: 6; activity (fold over background) [2]: 2

— patent US6194559
